Where “and” joins values, the source holds several entries; their conditions need not be identical. Equal entries are not always repeated. Where two headings read alike, the source gives them in different places. Positions of bridges follow the written chain, without caps; N, C: chain ends. No end group written: not given here. MBP = maltose binding protein (pMAL-c2)
Assays:
[1] = target: T1, soluble IGF-1R (recombinant human IGF-1R extracellular domain, R&D Systems Cat. # 391-GR/CF) (human, UniProt P08069 31-935); test: phage ELISA
T1 construct: extracellular domain; LANCE Eu3+-labelled in the TR-FRET assays; also called sIGF-1R; rhIGF-1R

[2] = target: T2, soluble human insulin receptor-immunoglobulin heavy chain chimera (sIR-Fc; Bass et al., 1996) (human, UniProt P06213-2 28-944); test: phage ELISA
T2 construct: extracellular domain; also called soluble IR (Bass construct); Eu3+-sIR-Fc; not shown: immunoglobulin heavy chain constant domains per Bass et al., 1996

[3] = target: T3, IGF-1R on cells (MCF-7, MiaPaCa, FDC-P2 cells expressing human IGF-1R) (human, UniProt P08069 31-1367); test: cell-based or functional assay
[4] = target: T4, His-tagged soluble recombinant human IGF-IR (srhIGF-1R-his) (human, UniProt P08069 31-935); test: ALPHAScreen competition against b-hIGF-1 on srhIGF-1R-his
T4 construct: extracellular domain; Bought construct; not shown: His tag

[5] = target: T3, IGF-1R on cells (MCF-7, MiaPaCa, FDC-P2 …); test: cell-based or functional assay; remark: listed apart in the source
[6] = target: T4, His-tagged soluble recombinant human …; test: ALPHAScreen competition against b-hIGF-1 on srhIGF-1R-his; remark: listed apart in the source
[7] = target: T3, IGF-1R on cells (MCF-7, MiaPaCa, FDC-P2 …); test: cell-based or functional assay; remark: listed apart in the source
[8] = target: T4, His-tagged soluble recombinant human …; test: ALPHAScreen competition against b-hIGF-1 on srhIGF-1R-his; remark: listed apart in the source
[9] = target: T5, human insulin receptor (HIR) (human, UniProt P06213-2 28-1370, limits assumed); test: HIR binding assay of MBP fusions (method not restated)
[10] = target: T5, human insulin receptor (HIR); test: HIR binding assay (method not restated)
[11] = target: T6, soluble human insulin receptor-immunoglobulin heavy chain chimera (sIR-Fc) (human, UniProt P06213-2 28-944, limits assumed); test: FP competition against FITC-RP9 on sIR-Fc
T6 construct: extracellular domain; not shown: immunoglobulin heavy chain constant domains

[12] = target: T3, IGF-1R on cells (MCF-7, MiaPaCa, FDC-P2 …); test: cell-based or functional assay; remark: listed apart in the source
[13] = target: T4, His-tagged soluble recombinant human …; test: ALPHAScreen competition against b-hIGF-1 on srhIGF-1R-his; remark: listed apart in the source
[14] = target: T3, IGF-1R on cells (MCF-7, MiaPaCa, FDC-P2 …); test: cell-based or functional assay; remark: listed apart in the source
[15] = target: T4, His-tagged soluble recombinant human …; test: ALPHAScreen competition against b-hIGF-1 on srhIGF-1R-his; remark: listed apart in the source
[16] = target: T4, His-tagged soluble recombinant human …; test: as above; remark: listed apart in the source
[17] = target: T3, IGF-1R on cells (MCF-7, MiaPaCa, FDC-P2 …); test: cell-based or functional assay; remark: listed apart in the source

T2 sequence (P06213 other isoform, or with tags, fused parts or gaps mutant): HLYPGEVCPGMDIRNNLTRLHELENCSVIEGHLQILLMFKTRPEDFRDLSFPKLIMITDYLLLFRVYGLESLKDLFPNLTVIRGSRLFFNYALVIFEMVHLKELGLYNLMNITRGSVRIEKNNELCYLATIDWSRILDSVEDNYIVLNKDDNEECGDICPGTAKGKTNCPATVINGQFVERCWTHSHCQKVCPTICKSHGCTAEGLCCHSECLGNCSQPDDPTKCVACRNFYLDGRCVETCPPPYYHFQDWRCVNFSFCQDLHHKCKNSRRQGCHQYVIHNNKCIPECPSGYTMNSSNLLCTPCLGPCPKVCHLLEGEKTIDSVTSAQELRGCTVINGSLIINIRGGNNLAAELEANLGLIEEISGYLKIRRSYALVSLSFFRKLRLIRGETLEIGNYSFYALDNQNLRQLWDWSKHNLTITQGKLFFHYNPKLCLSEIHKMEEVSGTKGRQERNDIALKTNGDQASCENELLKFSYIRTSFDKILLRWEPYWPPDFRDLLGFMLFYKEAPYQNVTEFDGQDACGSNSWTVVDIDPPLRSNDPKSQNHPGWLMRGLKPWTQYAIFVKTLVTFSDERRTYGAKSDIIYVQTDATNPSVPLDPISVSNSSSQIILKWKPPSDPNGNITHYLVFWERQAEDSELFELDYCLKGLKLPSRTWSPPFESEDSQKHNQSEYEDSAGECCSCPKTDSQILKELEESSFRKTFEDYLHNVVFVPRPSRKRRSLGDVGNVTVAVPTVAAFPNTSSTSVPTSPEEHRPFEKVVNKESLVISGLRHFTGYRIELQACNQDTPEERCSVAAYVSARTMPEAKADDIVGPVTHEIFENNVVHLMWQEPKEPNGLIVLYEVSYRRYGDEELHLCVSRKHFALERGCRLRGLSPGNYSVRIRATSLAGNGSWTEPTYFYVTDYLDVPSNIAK
T5 sequence (P06213 other isoform, or with tags, fused parts or gaps limits assumed): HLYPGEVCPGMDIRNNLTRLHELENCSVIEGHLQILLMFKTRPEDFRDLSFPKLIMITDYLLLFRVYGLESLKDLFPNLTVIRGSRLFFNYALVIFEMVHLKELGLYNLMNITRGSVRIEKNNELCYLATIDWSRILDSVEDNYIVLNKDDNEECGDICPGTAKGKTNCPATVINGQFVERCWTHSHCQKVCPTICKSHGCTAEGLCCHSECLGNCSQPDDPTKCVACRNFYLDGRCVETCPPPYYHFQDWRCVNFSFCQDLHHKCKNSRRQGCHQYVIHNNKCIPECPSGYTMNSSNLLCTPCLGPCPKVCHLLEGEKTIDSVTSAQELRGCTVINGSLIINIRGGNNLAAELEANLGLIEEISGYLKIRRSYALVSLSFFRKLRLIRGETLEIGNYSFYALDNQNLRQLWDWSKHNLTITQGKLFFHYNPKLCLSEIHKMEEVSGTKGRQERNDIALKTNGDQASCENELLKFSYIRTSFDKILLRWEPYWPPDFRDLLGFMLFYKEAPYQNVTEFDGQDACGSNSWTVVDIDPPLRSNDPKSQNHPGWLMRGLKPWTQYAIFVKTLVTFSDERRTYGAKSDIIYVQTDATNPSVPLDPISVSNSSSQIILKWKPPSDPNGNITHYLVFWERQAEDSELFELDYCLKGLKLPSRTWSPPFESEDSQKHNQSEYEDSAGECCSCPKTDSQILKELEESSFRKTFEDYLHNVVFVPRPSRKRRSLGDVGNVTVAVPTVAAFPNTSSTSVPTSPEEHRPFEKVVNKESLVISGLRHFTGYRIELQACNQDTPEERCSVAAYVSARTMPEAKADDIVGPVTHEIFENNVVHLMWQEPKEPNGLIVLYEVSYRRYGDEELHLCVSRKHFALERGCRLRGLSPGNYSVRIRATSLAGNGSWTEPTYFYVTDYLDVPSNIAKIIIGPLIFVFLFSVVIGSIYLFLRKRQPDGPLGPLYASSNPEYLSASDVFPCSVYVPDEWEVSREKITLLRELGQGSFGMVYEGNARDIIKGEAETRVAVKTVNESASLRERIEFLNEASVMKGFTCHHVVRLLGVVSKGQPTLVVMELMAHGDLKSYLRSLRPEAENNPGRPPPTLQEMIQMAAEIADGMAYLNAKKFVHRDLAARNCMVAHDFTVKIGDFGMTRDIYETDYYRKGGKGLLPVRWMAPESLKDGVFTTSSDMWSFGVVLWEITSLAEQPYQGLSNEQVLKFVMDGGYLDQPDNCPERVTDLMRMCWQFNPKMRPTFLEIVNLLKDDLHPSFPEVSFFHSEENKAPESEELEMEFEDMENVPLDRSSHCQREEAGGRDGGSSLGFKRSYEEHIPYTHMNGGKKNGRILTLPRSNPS
T6 sequence (P06213 other isoform, or with tags, fused parts or gaps mutant limits assumed): as the sequence (P06213 other isoform, or with tags, fused parts or gaps mutant) above

B1: 20C-3-F6-IGFR (peptide)
peptide: DRDFCRFYERLTALVGGQVDGGWPC
Binder B1 has an IGF-1R/IR ratio comparison [1] of 14.1 and an IR/IGF-1R ratio comparison [2] of 0.1.

B2: NNRPγ-4-A1-IR (peptide)
peptide: IIGGFYSYFNSVLRLGT
modifications: not fully specified
For B2, the IR/IGF-1R ratio comparison [2] was 0.2.

B3: 20E2B-3-D8-IGFR (peptide)
peptide: GGTEVDFYRALERLVRGQLGL
Work on B3 yielded an IR/IGF-1R ratio comparison [2] of 0.1.

B4: 20E2B-3-C2-IGFR (peptide)
peptide: GNGDGMFYQLLSLLVGRDMHV
In the case of B4, the IGF-1R/IR ratio comparison [1] is reported as 13.8 and the IR/IGF-1R ratio comparison [2] is reported as 0.1.

B5: B6Hα-1-B5-IR (peptide)
peptide: CCTTEMVVMDARDDPFYHKLSELVTGG
B5 showed an IGF-1R/IR ratio comparison [1] of 20.5.

B6: RP9 (peptide)
peptide: GSLDESFYDWFERQLG
For B6, the “Cellular IC50 (M), FDC-P2 cell proliferation” value [3] was 2e-06 M and the IC50 [4] was 970 nM.

B7: B6Hα-3-F11-IR (peptide)
peptide: RGMKEEVLVGGSTDPFYHKLSELLQGS
Binder B7 has an IR/IGF-1R ratio comparison [2] of 0.1.

B8: D112-12-RP30-IGF (peptide)
chain: ADYKDCWARPCGDAANFYDWFVQQASKKGGSGGSGGSGGSSFYSCLESLVNGGAERSDGQWEGCRAAAGAPVPYPDPLEPRPG
For B8, the “Cellular EC50 (M), MCF-7 cell proliferation” value [5] was 2.5e-07 M, the IC50 [6] was 170 nM and the “Cellular EC50 (M), MiaPaCa cell proliferation” value [7] was 2.2e-06 M. For the same binder, the IC50 [8] was 170 nM.

B9: RP6 (peptide)
peptide: TFYSCLASLLTGTPQPNRGPWERCR
For B9, the IC50 [4] was 350 nM.

B10: MBP fusion 435 (H2C-3aa-H2C-3aa-H2C) (other, not shown: large carriers; small tags and cut ends)
chain: NNNNLGIEGRISEFIEGRAQPAMAFHENFYDWFVRQVSGGSFHENFYDWFVRQVSGGSFHENFYDWFVRQVSAAAGAPVPYPDPLEPRAA
modifications: N-terminus of the given chain is fused to the C-terminus of MBP, which is not given
notes: also called RB435
B10 was tested, and the Kd [9] was 2000 nM and the Kd [10] was 2000 nM.

B11: C1 (peptide)
peptide: CWARPCGDAANFYDWFVQQAS
notes: also called C1 (D112); D112
For B11, the “Cellular IC50 (M), FDC-P2 cell proliferation” value [3] was 4e-06 M, the IC50 [4] was 42 nM and the IC50 [11] was 52 nM.

B12: B6Hα-2-C7-IR (peptide)
peptide: RGIVAMVEATEVGSDHDPFYHKLSELVQGS
With B12 the IGF-1R/IR ratio comparison [1] was 6.7.

B13: 20E2B-3-C8-IGFR (peptide)
peptide: QPAPDGFYSALMKLIGRGGVS
In the case of B13, the IR/IGF-1R ratio comparison [2] is reported as 0.1.

B14: A6L-0-E6-IR (peptide)
peptide: YRGMLVLGRSSDGAGKVAFERPARIGQTVFAVNFYDWFV
Work on B14 yielded an IR/IGF-1R ratio comparison [2] of 0.1.

B15: B6Hα-4-G8-IR (peptide)
peptide: GGTKAVAKVGTRDDPFYHKLSELLQGS
In the case of B15, the IR/IGF-1R ratio comparison [2] is reported as 0.3.

B16: MBP fusion 464 (LF-H2C) (other, not shown: large carriers; small tags and cut ends)
chain: {MBP}-NNNNLGIEGRISEFIEGRDYKDDDDKFHENFYDWFVRQVSAAGAPVPYPDPLEPRAA
notes: LF = long FLAG; also called RB464
With B16 the Kd [9] was 39 nM.

B17: D815 (peptide)
peptide: WLDQERAWLWCEISGRGCLS
In the case of B17, the “Cellular EC50 (M), FDC-P2 cell proliferation” value [12] is reported as 3e-06 M and 1e-06 M.

B18: G33 (peptide)
peptide: GIISQSCPESFYDWFAGQVSDPWWCW
With B18 the IC50 [13] was 600 nM, the “Cellular EC50 (M), MCF-7 cell proliferation” value [5] was 3e-07 M and the IC50 [6] was 600 nM. For the same binder, the “Cellular EC50 (M), FDC-P2 cell proliferation” value [12] was 2e-06 M.

B19: 20E2B-3-E8-IFGR (peptide)
peptide: LRIANLFYQRLWDLAFGGGG
B19 gave an IR/IGF-1R ratio comparison [2] of 0.1.

B20: 20E2B-4-F9-IGFR (peptide)
peptide: QPDHSYFYSLLQELVGSEERL
Work on B20 yielded an IR/IGF-1R ratio comparison [2] of 0.1.

B21: H2C-A-H6 (peptide)
peptide: VGRASGFPENFYDWFGRQLSLQSGEQ
In the case of B21, the “Cellular IC50 (M), MCF-7 cell proliferation” value [14] is reported as 4e-07 M, the “Cellular IC50 (M), FDC-P2 cell proliferation” value [3] is reported as 3e-07 M and the IC50 [4] is reported as 32000 nM. The IC50 [15] was 32000 nM.

B22: H2CA-3-E11-IGFR (peptide)
peptide: HLADGQFHEKFYDWFERQISSRCNDC
For B22, the IGF-1R/IR ratio comparison [1] was 2.2.

B23: RP56 (peptide)
peptide: EGYSWLRDVLMEKQAQLKREGSVGRQE
B23 was tested, and the IC50 [16] was 60000 nM and the “Cellular IC50 (M), MiaPaCa cell proliferation” value [17] was 9.4e-06 M.

B24: 20E2A-3-D10-IGFR (peptide)
peptide: MMVVDGFYDALHQLVVAQSLG
Binder B24 has an IR/IGF-1R ratio comparison [2] of 0.3.

B25: 20E2Bβ-4-G7-IR (peptide)
peptide: LQPCSGFYECIERLIGVKLSG
modifications: not fully specified; cysteine pairing not given here
B25 showed an IR/IGF-1R ratio comparison [2] of 0.1.

B26: H2CA-4-H9-IGFR (peptide)
peptide: RGAVAGFHDQFYDWFDRQVSRVHKFG
For B26, the IR/IGF-1R ratio comparison [2] was 0.3 and the ratio over background [2] was 1.9.

B27: 20C-3-A1-IGFR (peptide)
peptide: SSYGCDGFYLMLFSLGLVASQELEC
Work on B27 yielded an IR/IGF-1R ratio comparison [2] of 0.1.

B28: RP30-IGF-12-D112 (peptide)
chain: ADYKDSFYSCLESLVNGGAERSDGQWEGCRGGSGGSGGSGGSCWARPCGDAANFYDWFVQQASKKAAAGAPVPYPDPLEPRPG
B28 was tested, and the “Cellular EC50 (M), MCF-7 cell proliferation” value [5] was 4.1e-07 M and the IC50 [6] was 1100 nM.

B29: RP6KK (peptide)
peptide: TFYSCLASLLTGTPQPNRGPWERCRKK
modifications: disulfide 5-24 (inferred)
For B29, the “Cellular IC50 (M), MCF-7 cell proliferation” value [14] was 9e-06 M, the “Cellular IC50 (M), FDC-P2 cell proliferation” value [3] was 1e-06 M and the IC50 [15] was 180 nM.

B30: D112-12-D112 (peptide)
chain: ADYKDCWARPCGDAANFYDWFVQQASKKGGSGGSGGSGGSCWARPCGDAANFYDWFVQQASKKAAAGAPVPYPDPLEPRPG
With B30 the “Cellular EC50 (M), MCF-7 cell proliferation” value [5] was 3.5e-07 M and the “Cellular EC50 (M), MiaPaCa cell proliferation” value [7] was 2.5e-06 M.

B31: B6Hα-2-D1-IR (peptide)
peptide: GCEVIVEEGDSADPFYHKLSELCQGS
With B31 the IGF-1R/IR ratio comparison [1] was 4.2 and the IR/IGF-1R ratio comparison [2] was 0.2.

B32: 20E2B-3-D11-IGFR (peptide)
peptide: LGVTDGFYAALGYLIHGVGQF
With B32 the IGF-1R/IR ratio comparison [1] was 7.6 and the IR/IGF-1R ratio comparison [2] was 0.1.

B33: B6Hα-3-F10-IR (peptide)
peptide: GCVVEWQKWHGASDPFYHKLSELGGCS
B33 was tested, and the IR/IGF-1R ratio comparison [2] was 0.2.

B34: B6Hα-3-E9-IR (peptide)
peptide: RCEEKQAEVGPSSDPFYHKMSELLGCR
B34 showed an IR/IGF-1R ratio comparison [2] of 0.1.

B35: MBP fusion 463 (H2C-3aa-H2C) (other, not shown: large carriers; small tags and cut ends)
chain: NNNNLGIEGRISEFIEGRAQPAMAFHENFYDWFVRQVSGGSFHENFYDWFVRQVSAAAGAPVPYPDPLEPRAA
modifications: N-terminus of the given chain is fused to the C-terminus of MBP, which is not given
notes: also called RB463
For B35, the Kd [9] was 960 nM and the Kd [10] was 960 nM.

B36: B6Hα-2-D6-IR (peptide)
peptide: GRTMAVMAAGGPDDPFYHKLSELVQGG
Work on B36 yielded an IGF-1R/IR ratio comparison [1] of 4.4.

B37: A6L-0-H3-IR (peptide)
peptide: YRGMLVLGRISGGAGKAASERPARIGQKVSAVNFYDWFV
Binder B37 has an IR/IGF-1R ratio comparison [2] of 0.1 and a ratio over background [2] of 2.

B38: B6Hα-1-A2-IR (peptide)
peptide: RGCNDDGGKGWSDDPFYHKLSELICGG
Binder B38 has an IGF-1R/IR ratio comparison [1] of 14.6.

From US20070004634A1 (published 2007)
